Experimental data from patent US20220332804A1 (CSL INNOVATION, published 2022).

Tests used:
Assay in all cases: SPR; KD relative to WT C2;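 also: biacore SPR at 37 °C, anti-C2 mAbs captured on an anti-human IgG chip, alanine or serine C2 surface mutants tested, KD from 1:1 fit compared with wild-type C2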
human C2 H446A = biological target: T1, human C2 H446A (human, UniProt P06681 21-752)
T1 sequence: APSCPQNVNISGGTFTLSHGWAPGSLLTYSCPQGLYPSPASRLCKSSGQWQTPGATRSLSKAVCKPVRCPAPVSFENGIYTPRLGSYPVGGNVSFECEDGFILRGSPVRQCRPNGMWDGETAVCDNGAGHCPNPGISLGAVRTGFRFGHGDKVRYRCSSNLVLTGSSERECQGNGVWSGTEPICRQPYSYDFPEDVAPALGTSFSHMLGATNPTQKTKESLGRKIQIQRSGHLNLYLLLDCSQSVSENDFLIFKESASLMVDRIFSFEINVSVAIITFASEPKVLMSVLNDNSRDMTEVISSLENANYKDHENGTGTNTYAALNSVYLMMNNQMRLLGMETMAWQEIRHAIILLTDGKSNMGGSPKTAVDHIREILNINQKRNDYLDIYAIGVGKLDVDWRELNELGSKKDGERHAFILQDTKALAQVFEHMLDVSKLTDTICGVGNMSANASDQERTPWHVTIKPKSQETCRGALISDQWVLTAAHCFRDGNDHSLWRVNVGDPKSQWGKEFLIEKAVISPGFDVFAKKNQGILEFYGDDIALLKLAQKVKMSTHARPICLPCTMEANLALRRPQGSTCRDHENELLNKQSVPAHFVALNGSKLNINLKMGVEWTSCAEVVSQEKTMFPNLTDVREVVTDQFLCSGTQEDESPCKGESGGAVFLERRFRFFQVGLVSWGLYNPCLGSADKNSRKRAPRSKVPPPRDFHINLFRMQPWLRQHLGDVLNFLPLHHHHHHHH
Description: (§1) Surface plasmon resonance (SPR, Biacore) was used for all binding affinity analyses. In brief, goat anti-human IgG was directly immobilised onto the carboxymethyl dextran surface of CM5 sensorchips to approximately 12,000 RU using standard NHS/EDC chemistry at pH 5. The immobilised antibody surface was pre-conditioned with ten injections of polyclonal human IgG (Privigen 60 s) prepared at 1 μg/mL. Ligands (anti-C2 mAbs) were captured at the beginning of each cycle as described below. An adjacent spot or flow cell in which only Polyclonal IgG was capture was used as a reference surface. The goat anti-human IgG Fc antibody surface was regenerate in 100 mM H3PO4, injected for 45 seconds at the end of each cycle. Experiments were performed at 37° C. and the flow rate of each experiment was kept constant at 30 μL/min.
(§2) Sensogram data was double-referenced against a reference anti-IgG surface (i.e. minus anti-C2 mAb) and blank buffer injections obtained within each experiment. The binding data was fit to 1:1 (kinetic or steady-state) model using local Rmax and null refraction index (RI=0) when appropriate. Buffers and solutions were filtered (0.22 μm) prior to use.
(§3) The C2 mutants were designed to test the importance of surface exposed residues for antibody binding. Residues located at either the N-terminal VWA domain or C-terminal protease domain of C were replaced by either alanine or serine and tested for binding against anti-C2 antibodies.

human C2 D269A = biological target: T2, human C2 D269A (human, UniProt P06681 21-752)
T2 sequence: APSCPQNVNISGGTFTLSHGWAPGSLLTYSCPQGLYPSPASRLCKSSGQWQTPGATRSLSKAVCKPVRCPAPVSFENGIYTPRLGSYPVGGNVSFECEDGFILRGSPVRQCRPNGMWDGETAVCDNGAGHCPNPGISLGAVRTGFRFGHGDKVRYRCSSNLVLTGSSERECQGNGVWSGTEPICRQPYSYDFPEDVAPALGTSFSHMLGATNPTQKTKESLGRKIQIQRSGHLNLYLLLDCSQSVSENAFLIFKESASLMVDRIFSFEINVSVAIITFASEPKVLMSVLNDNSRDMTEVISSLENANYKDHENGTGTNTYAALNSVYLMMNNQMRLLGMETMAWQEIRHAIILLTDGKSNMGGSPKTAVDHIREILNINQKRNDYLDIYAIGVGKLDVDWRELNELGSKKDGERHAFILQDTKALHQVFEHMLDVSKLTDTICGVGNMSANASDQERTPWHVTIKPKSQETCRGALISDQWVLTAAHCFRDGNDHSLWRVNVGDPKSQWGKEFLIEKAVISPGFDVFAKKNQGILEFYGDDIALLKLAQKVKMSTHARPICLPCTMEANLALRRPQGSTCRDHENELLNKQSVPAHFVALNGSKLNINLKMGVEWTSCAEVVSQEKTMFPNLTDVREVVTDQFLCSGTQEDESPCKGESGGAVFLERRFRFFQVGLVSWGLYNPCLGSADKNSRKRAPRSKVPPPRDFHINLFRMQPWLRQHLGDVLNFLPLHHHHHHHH
Description: as §1, §2, §3

human C2 D404A = biological target: T3, human C2 D404A (human, UniProt P06681 21-752)
T3 sequence: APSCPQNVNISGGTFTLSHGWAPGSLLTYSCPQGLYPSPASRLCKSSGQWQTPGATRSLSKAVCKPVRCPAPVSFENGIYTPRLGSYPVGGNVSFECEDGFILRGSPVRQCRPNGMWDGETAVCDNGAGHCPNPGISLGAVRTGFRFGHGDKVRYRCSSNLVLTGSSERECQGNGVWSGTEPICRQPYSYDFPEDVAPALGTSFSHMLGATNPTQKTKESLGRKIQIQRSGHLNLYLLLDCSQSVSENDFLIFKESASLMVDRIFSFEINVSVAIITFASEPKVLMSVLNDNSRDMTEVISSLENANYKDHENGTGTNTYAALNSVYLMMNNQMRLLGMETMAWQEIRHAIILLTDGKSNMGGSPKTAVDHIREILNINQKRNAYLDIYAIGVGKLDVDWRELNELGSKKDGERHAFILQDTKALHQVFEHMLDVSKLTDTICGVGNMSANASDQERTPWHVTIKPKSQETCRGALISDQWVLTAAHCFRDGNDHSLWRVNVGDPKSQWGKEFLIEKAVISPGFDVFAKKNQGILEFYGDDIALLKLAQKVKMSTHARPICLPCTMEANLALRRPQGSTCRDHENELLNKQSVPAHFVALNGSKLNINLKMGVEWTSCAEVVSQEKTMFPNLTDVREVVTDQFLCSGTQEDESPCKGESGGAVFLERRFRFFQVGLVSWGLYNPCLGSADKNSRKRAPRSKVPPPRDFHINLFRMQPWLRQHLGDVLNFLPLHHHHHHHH
Description: as §1, §2, §3

human C2 E433A = biological target: T4, human C2 E433A (human, UniProt P06681 21-752)
T4 sequence: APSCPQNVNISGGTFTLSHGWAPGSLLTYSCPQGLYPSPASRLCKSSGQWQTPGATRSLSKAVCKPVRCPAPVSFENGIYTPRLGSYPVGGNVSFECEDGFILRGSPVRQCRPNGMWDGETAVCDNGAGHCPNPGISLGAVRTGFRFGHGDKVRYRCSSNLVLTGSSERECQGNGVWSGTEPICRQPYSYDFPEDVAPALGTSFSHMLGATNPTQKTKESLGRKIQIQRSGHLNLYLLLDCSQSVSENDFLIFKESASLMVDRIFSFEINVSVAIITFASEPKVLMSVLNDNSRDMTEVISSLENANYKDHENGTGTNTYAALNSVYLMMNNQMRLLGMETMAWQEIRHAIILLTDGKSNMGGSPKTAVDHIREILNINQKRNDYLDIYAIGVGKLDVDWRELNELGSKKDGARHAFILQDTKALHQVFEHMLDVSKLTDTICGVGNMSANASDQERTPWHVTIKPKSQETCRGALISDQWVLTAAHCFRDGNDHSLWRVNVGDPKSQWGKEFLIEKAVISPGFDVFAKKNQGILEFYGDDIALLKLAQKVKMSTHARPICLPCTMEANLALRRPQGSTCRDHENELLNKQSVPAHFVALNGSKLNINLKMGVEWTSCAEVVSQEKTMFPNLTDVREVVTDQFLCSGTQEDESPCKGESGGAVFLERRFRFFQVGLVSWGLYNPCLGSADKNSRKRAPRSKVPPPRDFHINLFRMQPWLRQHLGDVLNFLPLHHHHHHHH
Description: as §1, §2, §3

Fold diff (human C2 H446A): 5 fold | Fold diff (human C2 D269A): 1 fold | Fold diff (human C2 D404A): 3 fold | Fold diff (human C2 E433A): 1 fold
B1: RF16-214 (antibody, V domains shown)
VH: EVQLLESGGGLVQPGGSLRLSCAASGFTFSWYQMMWVRQAPGKGLEWVSRIYPSGGGTAYADSVKGRFTISRDNSKNTLYLQMNSLRAEDTAVYYCARDAGYGDNWGQGTLVTVSS
VL: QSALTQPPSVSVSPGQTASITCSGDKLGEKYASWYQQKAGQSPVMVIYQDRKRPSGIPERFSGSNSGNTATLTISGTQAMDEADYYCQAWDTRAVVFGGGTKLTVLG
